How the values were obtained:
[1] = biological target: T1, Notch2 (EGF6-13) (Homo sapiens, UniProt Q04721); assay: SPR determination of equilibrium dissociation constants; type: binding
T1 construct: hNotch2 (EGF6-13, residues 221-530); gp67 signal peptide (N); made in house; host or cells: HiFive Trichoplusia ni insect cells (baculovirus)
T1 sequence (Q04721 221-530): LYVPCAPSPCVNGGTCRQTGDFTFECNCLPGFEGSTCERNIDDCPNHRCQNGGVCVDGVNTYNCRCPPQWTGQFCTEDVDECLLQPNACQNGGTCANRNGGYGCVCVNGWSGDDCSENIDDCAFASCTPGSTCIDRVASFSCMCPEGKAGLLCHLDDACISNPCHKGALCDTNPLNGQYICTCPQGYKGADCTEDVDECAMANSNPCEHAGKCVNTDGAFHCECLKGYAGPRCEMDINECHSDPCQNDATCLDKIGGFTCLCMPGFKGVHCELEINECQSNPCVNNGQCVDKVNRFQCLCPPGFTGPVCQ
Method: (§1) Equilibrium dissociation constants were determined by surface plasmon resonance using a Biacore T200 instrument (GE Healthcare). Approximately 100 resonance units (RU) of biotinylated Notch extracellular fragments (Notch1 (EGF6-13), Notch2 (EGF6-13), Notch3 (EGF5-12), Notch4 (7-12), and mouse Notch1 (EGF6-13)) were immobilized on individual flow cells at 5 μl/min using a streptavidin-coated sensor chip (Series S Sensor chip SA, GE Healthcare). Three-fold serial dilutions of recombinant DLL4 proteins (N-EGF5) starting at 50 μM (WT DLL4), 18 μM (DLL4.v2), and 6 μM (DLL4.v1 and Delta^MAX) were flowed over the chip at 25° C. in SPR buffer (20 mM HEPES pH 7.4, 150 mM NaCl, 1 mM calcium chloride, 0.1% BSA supplemented with 0.005% surfactant P20). Association (“on-rate”) and dissociation (“off-rate”) phases were performed at 10 μl/min for 120 seconds and 300 seconds, respectively. The sensor chip was regenerated after each injection with 30-second washes of 2.25M Magnesium Chloride containing 25% Ethylene Glycol at 50 μL/min. Data collection rate was performed at 10 Hz, and curves were reference-subtracted from a flow cell containing 100 RU of a negative control non-related protein (biotinylated mouse RNF43 PA domain). The maximum RU for each experiment was normalized to a value of 100% and plotted as a function of concentration using Prism 9 software (GraphPad). Steady-state binding and kinetic curves were fitted using the Biacore T200 evaluation software to a 1:1 Langmuir model to determine the KD values.

[2] = biological target: T2, Notch3 (EGF5-12) (Homo sapiens, UniProt Q9UM47); assay: as above; type: binding
T2 construct: hNotch3 (EGF5-12, residues 197-505); gp67 signal peptide (N); made in house; host or cells: HiFive Trichoplusia ni insect cells (baculovirus)
T2 sequence (Q9UM47 197-505): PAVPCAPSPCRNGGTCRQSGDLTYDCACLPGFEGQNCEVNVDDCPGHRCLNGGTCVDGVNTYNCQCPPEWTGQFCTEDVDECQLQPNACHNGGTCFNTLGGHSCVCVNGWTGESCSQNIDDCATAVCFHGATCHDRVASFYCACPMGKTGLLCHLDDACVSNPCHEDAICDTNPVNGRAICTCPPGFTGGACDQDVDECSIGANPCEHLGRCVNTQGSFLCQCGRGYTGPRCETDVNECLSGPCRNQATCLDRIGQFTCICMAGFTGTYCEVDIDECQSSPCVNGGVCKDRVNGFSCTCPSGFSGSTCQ
Method: as §1

[3] = biological target: T3, Notch4 (7-12) (Homo sapiens, UniProt Q99466); assay: as above; type: binding
T3 construct: hNotch4 (EGF7-12, residues 276-511); gp67 signal peptide (N); made in house; host or cells: HiFive Trichoplusia ni insect cells (baculovirus)
T3 sequence (Q99466 276-511): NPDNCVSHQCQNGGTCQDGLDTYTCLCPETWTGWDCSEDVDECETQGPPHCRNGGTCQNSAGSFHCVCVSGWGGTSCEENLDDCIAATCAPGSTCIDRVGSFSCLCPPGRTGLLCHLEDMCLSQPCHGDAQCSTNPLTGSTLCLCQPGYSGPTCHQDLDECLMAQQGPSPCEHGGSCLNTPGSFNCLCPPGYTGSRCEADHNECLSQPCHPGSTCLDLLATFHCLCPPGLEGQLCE
Method: as §1

[4] = biological target: T4, endogenous Notch1 (Homo sapiens, UniProt P46531); assay: Western blot for cleaved Notch1 ICD in U2OS and MCF-7 cells; type: cell-based; settings: 50 nM C-terminally anchored, 24 hours
T4 construct: cells expressing endogenous levels of Notch1; endogenous in cells; host or cells: U2OS; MCF-7
Method: For Notch activation in U2OS and MCF-7 cells, WT DLL4 and Delta^MAX biotinylated ligands were immobilized at 50 nM in 6-well streptavidin-coated plates following a scaled-up protocol of the one described before. After 24 hours of stimulation, cells were lysed in Laemmli […] buffer (40% glycerol, 4% SDS, 250 mM Tris-HCl, 0.02% bromophenol blue, and 20% β-mercaptoethanol). Cell lysates were heated at 100° C. for 5 min, centrifuged at 21,000×g for 10 min at 4° C., and supernatants stored at −20° C. Proteins were separated by SDS-PAGE (12% Mini-PROTEAN TGX Precast Protein Gels, Bio-Rad) and transferred to PVDF membranes using an iBlot2 Gel Transfer Device (Thermo Fisher Scientific). The membranes were blocked in 3% BSA+0.1% TBS-Tween. Primary antibodies were anti-cleaved Notch1 (Val1744 rabbit mAb, Cell Signaling Technology, 1:1,000), and β-Actin (rabbit pAb, Cell Signaling Technology, 1:1,000). Secondary antibody anti-Rabbit IgG conjugated to HRP (Goat mAb, Vector Laboratories, 1:8,000) was used for detection of proteins using SuperSignal West Pico PLUS Chemiluminescent Substrate (Thermo Fisher Scientific). Images were acquired using an Amersham Imager 600 (GE Healthcare), and contrast adjusted with a curves layer.

[5] = SPR, 25° C., ligand N-EGF5, read-out: dissociation constant (KD)

T4 sequence (P46531 19-2555): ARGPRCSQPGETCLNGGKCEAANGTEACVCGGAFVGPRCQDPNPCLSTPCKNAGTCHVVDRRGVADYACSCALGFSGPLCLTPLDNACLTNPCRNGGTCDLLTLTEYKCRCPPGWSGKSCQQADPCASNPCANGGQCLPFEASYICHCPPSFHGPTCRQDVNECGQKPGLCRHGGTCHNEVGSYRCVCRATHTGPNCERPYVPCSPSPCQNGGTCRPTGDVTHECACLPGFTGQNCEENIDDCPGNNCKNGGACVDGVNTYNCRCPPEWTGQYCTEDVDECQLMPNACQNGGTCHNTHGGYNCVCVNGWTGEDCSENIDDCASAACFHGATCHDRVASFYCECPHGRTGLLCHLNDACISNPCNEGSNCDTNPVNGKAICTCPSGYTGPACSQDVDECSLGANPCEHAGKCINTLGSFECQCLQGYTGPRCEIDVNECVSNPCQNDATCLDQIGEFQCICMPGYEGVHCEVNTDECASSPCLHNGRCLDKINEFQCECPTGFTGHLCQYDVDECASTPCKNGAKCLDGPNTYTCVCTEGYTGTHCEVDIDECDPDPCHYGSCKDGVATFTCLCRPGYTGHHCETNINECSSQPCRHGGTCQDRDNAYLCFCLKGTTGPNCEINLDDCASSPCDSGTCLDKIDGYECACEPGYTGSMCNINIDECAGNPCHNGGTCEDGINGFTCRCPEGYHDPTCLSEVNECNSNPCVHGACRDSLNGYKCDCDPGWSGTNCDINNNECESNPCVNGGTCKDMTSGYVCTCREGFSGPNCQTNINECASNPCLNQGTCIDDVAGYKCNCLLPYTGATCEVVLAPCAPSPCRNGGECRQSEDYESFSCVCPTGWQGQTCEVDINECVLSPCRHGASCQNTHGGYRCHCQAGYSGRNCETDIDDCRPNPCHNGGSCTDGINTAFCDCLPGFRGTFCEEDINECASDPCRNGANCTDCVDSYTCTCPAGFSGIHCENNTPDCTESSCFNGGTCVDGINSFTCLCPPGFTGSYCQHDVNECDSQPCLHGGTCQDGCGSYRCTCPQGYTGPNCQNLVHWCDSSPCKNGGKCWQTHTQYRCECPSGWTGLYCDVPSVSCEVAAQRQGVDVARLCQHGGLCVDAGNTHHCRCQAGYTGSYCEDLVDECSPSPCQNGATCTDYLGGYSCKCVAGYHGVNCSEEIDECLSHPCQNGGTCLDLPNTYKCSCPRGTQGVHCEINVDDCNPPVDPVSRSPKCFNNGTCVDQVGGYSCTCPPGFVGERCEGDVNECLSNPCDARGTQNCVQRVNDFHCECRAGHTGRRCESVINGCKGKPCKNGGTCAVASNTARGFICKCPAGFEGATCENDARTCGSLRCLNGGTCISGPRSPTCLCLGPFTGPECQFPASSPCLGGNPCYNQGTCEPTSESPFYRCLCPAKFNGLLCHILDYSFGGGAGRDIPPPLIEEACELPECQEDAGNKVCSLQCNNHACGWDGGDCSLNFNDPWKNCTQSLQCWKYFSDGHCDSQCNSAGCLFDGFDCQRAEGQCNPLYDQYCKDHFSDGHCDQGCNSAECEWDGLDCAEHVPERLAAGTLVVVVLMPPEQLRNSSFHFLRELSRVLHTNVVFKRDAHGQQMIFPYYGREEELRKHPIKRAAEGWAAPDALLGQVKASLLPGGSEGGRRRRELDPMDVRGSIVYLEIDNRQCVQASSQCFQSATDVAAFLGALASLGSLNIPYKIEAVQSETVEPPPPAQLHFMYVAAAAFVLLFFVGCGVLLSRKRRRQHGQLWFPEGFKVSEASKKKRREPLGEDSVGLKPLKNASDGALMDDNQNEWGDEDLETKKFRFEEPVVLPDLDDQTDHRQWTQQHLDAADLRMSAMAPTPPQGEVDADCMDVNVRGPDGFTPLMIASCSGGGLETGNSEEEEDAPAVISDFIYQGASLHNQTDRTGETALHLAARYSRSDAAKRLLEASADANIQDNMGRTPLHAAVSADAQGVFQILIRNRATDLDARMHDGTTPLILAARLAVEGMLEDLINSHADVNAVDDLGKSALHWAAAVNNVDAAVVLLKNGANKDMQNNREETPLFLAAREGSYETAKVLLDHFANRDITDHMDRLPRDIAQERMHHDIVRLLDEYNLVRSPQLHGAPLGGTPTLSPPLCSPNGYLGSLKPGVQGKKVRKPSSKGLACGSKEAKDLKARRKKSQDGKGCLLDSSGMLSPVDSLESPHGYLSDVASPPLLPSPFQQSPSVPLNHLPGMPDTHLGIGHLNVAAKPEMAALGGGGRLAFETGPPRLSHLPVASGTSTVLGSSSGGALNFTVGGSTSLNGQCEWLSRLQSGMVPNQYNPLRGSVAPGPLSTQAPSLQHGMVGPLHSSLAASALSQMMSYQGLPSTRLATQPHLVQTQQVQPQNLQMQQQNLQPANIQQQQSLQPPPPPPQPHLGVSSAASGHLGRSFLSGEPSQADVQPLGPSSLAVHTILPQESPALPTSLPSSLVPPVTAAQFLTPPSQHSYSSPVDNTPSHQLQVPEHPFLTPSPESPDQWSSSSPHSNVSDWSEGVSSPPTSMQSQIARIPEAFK

B1: Delta^MAX: engineered human DLL4 consensus variant with 10 mutations combining DLL4.v1 and DLL4.v2 mutations; sequence matches SEQ ID NO: 4/10 (protein)
chain: SSVFQLQLQEFINERGVLASGRPCEPGCRTFFRVCLKHFQAVVSPGPCTFGTVSTPVLGTNSFAVRDDSSGGGRNPLQLPLNFTWPGTFSLIIEAWHAPGDDLRPEALPPDALISKFAIQGSLAVGQNWLLDEQTSTLTRLRYSYRVICSDNYYGDNCSRLCKKRNDYFGHYVCQPDGNPSCLPGWTGEYCQQPICLSGCHEQNGYCSKPAECLCRPGWQGRLCNECIPHPGCRHGTCSTPWQCLCDEGWGGLYCDQDLNYCTHHSPCKNGATCRNSGPRSYTCTCRPGYTGVDCELELSECDSNPCRNGGSCKDQEDGYHCLCPPGYYGLHCEHSTLSCADSPCFNGGSCRERNQGANYACECPPNFTGSNCE
[1]; Notch2
  enhancement of affinity compared to WT DLL4: 670 fold
[1]; [5]
  Kd: 54 nM
[2]; Notch3
  enhancement of affinity compared to WT DLL4: 591 fold
[2]; [5]
  Kd: 49 nM
[3]
  enhancement of affinity compared to WT DLL4: 532 fold
[4]; MCF-7 cells
  Notch1 activation (cleaved Notch1 ICD) vs WT DLL4: much more potently
[4]; U2OS cells
  Notch1 activation (cleaved Notch1 ICD) vs WT DLL4: much more potently

Reference: US20260055369A1, “METHOD FOR GENERATING CELLS OF THE T CELL LINEAGE WITH ENGINEERING BROADLY REACTIVE HUMAN NOTCH LIGAND” (H. Lee Moffitt Cancer Center and Research Institute, Inc., priority 2022, published 2026)
